± gives the standard error. This sample holds only a part of the variants without activity.
B1: glmS ribozyme (parent)
chain: AUAAAAGCGCCAGAACUACAGAAAUGUAGUUGACGAGGAGGAGGUUUAUCGAAUUUUCGGCGGAUGCCUCCAAA

Experiments:
Details in all cases: with glucosamine-6-phosphate
[1] = variants of: B1; experiment: self-cleavage kobs at 640 uM GlcN6P; higher = faster cleavage; RNA array
Outline: (§1)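 Glucosamine-6-phosphate, from 40 μM to 10 mM in HEPES/KCl/Mg(OAc)2 buffer, was flowed over sequenced MiSeq chips carrying barcoded ribozyme variants transcribed in situ by E. coli RNA polymerase. A hybridised Cy3 probe tracked the variants at 37 °C as tiles were imaged over ~14 h. kobs, kcat and KM were obtained by fitting normalised per-tile medians to exponential decays and then applying weighted Michaelis–Menten fits across concentrations.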

[2] = variants of: B1; experiment: self-cleavage kobs at 2500 uM GlcN6P; higher = faster cleavage; RNA array
Outline: as §1

[3] = variants of: B1; experiment: self-cleavage kobs at 10000 uM GlcN6P; higher = faster cleavage; RNA array
Outline: as §1

A6C C10A A15G C16G G63A was tested, and the “self-cleavage kobs at 640 uM GlcN6P” value [1] was < 1e-05 s⁻¹, the “self-cleavage kobs at 2500 uM GlcN6P” value [2] was < 1e-05 s⁻¹ and the “self-cleavage kobs at 10000 uM GlcN6P” value [3] was < 1e-05 s⁻¹.

With C8A G13U C58A U65G C67G the “self-cleavage kobs at 640 uM GlcN6P” value [1] was < 1e-05 s⁻¹.

For G59U G62A C70G, the “self-cleavage kobs at 640 uM GlcN6P” value [1] was 5.34e-05 ± 1.5e-05 s⁻¹.

For A14G U31G C67G, the “self-cleavage kobs at 640 uM GlcN6P” value [1] was 6.87e-05 ± 2.7e-05 s⁻¹ and the “self-cleavage kobs at 2500 uM GlcN6P” value [2] was 5.23e-05 ± 1.9e-05 s⁻¹.

For G9C C50U C58U, the “self-cleavage kobs at 640 uM GlcN6P” value [1] was < 1e-05 s⁻¹ and the “self-cleavage kobs at 2500 uM GlcN6P” value [2] was < 1e-05 s⁻¹.

In the case of U57A G62A, the “self-cleavage kobs at 640 uM GlcN6P” value [1] is reported as < 1e-05 s⁻¹.

With A6G A52U G60U the “self-cleavage kobs at 640 uM GlcN6P” value [1] was < 1e-05 s⁻¹ and the “self-cleavage kobs at 2500 uM GlcN6P” value [2] was < 1e-05 s⁻¹.

G7U G9U G43U was tested, and the “self-cleavage kobs at 640 uM GlcN6P” value [1] was < 1e-05 s⁻¹ and the “self-cleavage kobs at 2500 uM GlcN6P” value [2] was < 1e-05 s⁻¹.

C11A A52G A64C was tested, and the “self-cleavage kobs at 640 uM GlcN6P” value [1] was < 1e-05 s⁻¹ and the “self-cleavage kobs at 2500 uM GlcN6P” value [2] was < 1e-05 s⁻¹.

For A15C C58A C67G C71G, the “self-cleavage kobs at 640 uM GlcN6P” value [1] was 4.54e-05 ± 1.8e-05 s⁻¹.

For G35C A42C C50U G51U, the “self-cleavage kobs at 640 uM GlcN6P” value [1] was < 1e-05 s⁻¹.

In the case of U30G A39C U55G, the “self-cleavage kobs at 640 uM GlcN6P” value [1] is reported as 0.000198 ± 5.5e-05 s⁻¹, the “self-cleavage kobs at 2500 uM GlcN6P” value [2] is reported as 0.000726 ± 0.00014 s⁻¹ and the “self-cleavage kobs at 10000 uM GlcN6P” value [3] is reported as 0.00144 ± 0.00047 s⁻¹.

In the case of A33C U54G A64C C70G, the “self-cleavage kobs at 640 uM GlcN6P” value [1] is reported as < 1e-05 s⁻¹ and the “self-cleavage kobs at 2500 uM GlcN6P” value [2] is reported as < 1e-05 s⁻¹.

With C16U A39G A53C C68A the “self-cleavage kobs at 640 uM GlcN6P” value [1] was < 1e-05 s⁻¹.

With U47A G62A the “self-cleavage kobs at 640 uM GlcN6P” value [1] was < 1e-05 s⁻¹ and the “self-cleavage kobs at 2500 uM GlcN6P” value [2] was < 1e-05 s⁻¹.

With A12U C16U A42U the “self-cleavage kobs at 640 uM GlcN6P” value [1] was 0.000196 ± 4.1e-05 s⁻¹.

With C11U C58A G62U the “self-cleavage kobs at 640 uM GlcN6P” value [1] was < 1e-05 s⁻¹.

For A6G G63U A64C C67U U69G, the “self-cleavage kobs at 640 uM GlcN6P” value [1] was < 1e-05 s⁻¹ and the “self-cleavage kobs at 2500 uM GlcN6P” value [2] was < 1e-05 s⁻¹.

U31G G44A U46A G62C was tested, and the “self-cleavage kobs at 640 uM GlcN6P” value [1] was < 1e-05 s⁻¹ and the “self-cleavage kobs at 2500 uM GlcN6P” value [2] was < 1e-05 s⁻¹.

In the case of A15C C16G U55C C61G, the “self-cleavage kobs at 640 uM GlcN6P” value [1] is reported as < 1e-05 s⁻¹.

In the case of G35U C58A A64U, the “self-cleavage kobs at 640 uM GlcN6P” value [1] is reported as < 1e-05 s⁻¹ and the “self-cleavage kobs at 2500 uM GlcN6P” value [2] is reported as < 1e-05 s⁻¹.

For G13C G38U U56G G63U U69C, the “self-cleavage kobs at 640 uM GlcN6P” value [1] was < 1e-05 s⁻¹ and the “self-cleavage kobs at 2500 uM GlcN6P” value [2] was < 1e-05 s⁻¹.

For G38U U45G G51A, the “self-cleavage kobs at 640 uM GlcN6P” value [1] was < 1e-05 s⁻¹ and the “self-cleavage kobs at 2500 uM GlcN6P” value [2] was < 1e-05 s⁻¹.

In the case of C11A G51U A53G A64C U69A, the “self-cleavage kobs at 640 uM GlcN6P” value [1] is reported as 8.76e-05 ± 3.9e-05 s⁻¹ and the “self-cleavage kobs at 10000 uM GlcN6P” value [3] is reported as 5.47e-05 ± 1.5e-05 s⁻¹.

With A6U G35U G43U the “self-cleavage kobs at 640 uM GlcN6P” value [1] was < 1e-05 s⁻¹ and the “self-cleavage kobs at 2500 uM GlcN6P” value [2] was < 1e-05 s⁻¹.

A42C G51A U69A was tested, and the “self-cleavage kobs at 640 uM GlcN6P” value [1] was < 1e-05 s⁻¹.

With U47C U69C the “self-cleavage kobs at 640 uM GlcN6P” value [1] was 0.000374 ± 0.00011 s⁻¹ and the “self-cleavage kobs at 2500 uM GlcN6P” value [2] was 0.00197 ± 0.00045 s⁻¹.

For A6G G40U C67A, the “self-cleavage kobs at 640 uM GlcN6P” value [1] was < 1e-05 s⁻¹.

C10A G13A C50A C58U C71G was tested, and the “self-cleavage kobs at 640 uM GlcN6P” value [1] was 0.000823 ± 0.00036 s⁻¹ and the “self-cleavage kobs at 2500 uM GlcN6P” value [2] was 7.64e-05 ± 3.6e-05 s⁻¹.

In the case of G13A G41A C50U G51U C67U, the “self-cleavage kobs at 640 uM GlcN6P” value [1] is reported as < 1e-05 s⁻¹.

With C8G G60A C61G the “self-cleavage kobs at 640 uM GlcN6P” value [1] was < 1e-05 s⁻¹ and the “self-cleavage kobs at 2500 uM GlcN6P” value [2] was < 1e-05 s⁻¹.

With C11A A12U C16U C70U the “self-cleavage kobs at 640 uM GlcN6P” value [1] was 0.00025 ± 7.2e-05 s⁻¹ and the “self-cleavage kobs at 2500 uM GlcN6P” value [2] was 0.000524 ± 0.00013 s⁻¹.

With U2C U31C the “self-cleavage kobs at 640 uM GlcN6P” value [1] was 0.000805 ± 0.00025 s⁻¹.

For G29U G35A U45G, the “self-cleavage kobs at 640 uM GlcN6P” value [1] was < 1e-05 s⁻¹.

C34U G40U A53U C58U G60U C61A C68A was tested, and the “self-cleavage kobs at 640 uM GlcN6P” value [1] was < 1e-05 s⁻¹.

For G7C G29C C67G, the “self-cleavage kobs at 640 uM GlcN6P” value [1] was < 1e-05 s⁻¹ and the “self-cleavage kobs at 2500 uM GlcN6P” value [2] was < 1e-05 s⁻¹.

With A12U C16A A53C the “self-cleavage kobs at 640 uM GlcN6P” value [1] was 0.000148 ± 3.3e-05 s⁻¹ and the “self-cleavage kobs at 2500 uM GlcN6P” value [2] was 0.000358 ± 7.9e-05 s⁻¹.

For U47A A48U C70U, the “self-cleavage kobs at 640 uM GlcN6P” value [1] was 0.000162 ± 5.1e-05 s⁻¹, the “self-cleavage kobs at 2500 uM GlcN6P” value [2] was 0.000141 ± 3.3e-05 s⁻¹ and the “self-cleavage kobs at 10000 uM GlcN6P” value [3] was 0.000573 ± 0.00021 s⁻¹.

With C8U G32A C34G the “self-cleavage kobs at 640 uM GlcN6P” value [1] was < 1e-05 s⁻¹ and the “self-cleavage kobs at 2500 uM GlcN6P” value [2] was < 1e-05 s⁻¹.

In the case of A48U U57G G62U, the “self-cleavage kobs at 640 uM GlcN6P” value [1] is reported as < 1e-05 s⁻¹ and the “self-cleavage kobs at 2500 uM GlcN6P” value [2] is reported as < 1e-05 s⁻¹.

A12C G29A C58G U65G C68G was tested, and the “self-cleavage kobs at 640 uM GlcN6P” value [1] was 0.000168 ± 6e-05 s⁻¹ and the “self-cleavage kobs at 2500 uM GlcN6P” value [2] was 8.36e-05 ± 2.2e-05 s⁻¹.

For A39U G43C C70G, the “self-cleavage kobs at 640 uM GlcN6P” value [1] was < 1e-05 s⁻¹ and the “self-cleavage kobs at 2500 uM GlcN6P” value [2] was < 1e-05 s⁻¹.

With C16U U45A C70G the “self-cleavage kobs at 640 uM GlcN6P” value [1] was 0.000277 ± 6e-05 s⁻¹ and the “self-cleavage kobs at 2500 uM GlcN6P” value [2] was 0.000385 ± 9.2e-05 s⁻¹.

With U30C A36C G40U the “self-cleavage kobs at 640 uM GlcN6P” value [1] was < 1e-05 s⁻¹ and the “self-cleavage kobs at 2500 uM GlcN6P” value [2] was < 1e-05 s⁻¹.

In the case of A39G C50G C67U, the “self-cleavage kobs at 640 uM GlcN6P” value [1] is reported as 0.000571 ± 0.00018 s⁻¹ and the “self-cleavage kobs at 2500 uM GlcN6P” value [2] is reported as 0.000299 ± 0.00012 s⁻¹.

G37A A42U G44C G59A was tested, and the “self-cleavage kobs at 640 uM GlcN6P” value [1] was < 1e-05 s⁻¹ and the “self-cleavage kobs at 2500 uM GlcN6P” value [2] was < 1e-05 s⁻¹.

In the case of C8G C10U G38A U65G C68G, the “self-cleavage kobs at 640 uM GlcN6P” value [1] is reported as 4.45e-05 ± 1.9e-05 s⁻¹.

With A12C U31C A48C A52U the “self-cleavage kobs at 640 uM GlcN6P” value [1] was < 1e-05 s⁻¹ and the “self-cleavage kobs at 2500 uM GlcN6P” value [2] was < 1e-05 s⁻¹.

For G9U U30G U31C A39C A64G, the “self-cleavage kobs at 640 uM GlcN6P” value [1] was < 1e-05 s⁻¹ and the “self-cleavage kobs at 2500 uM GlcN6P” value [2] was < 1e-05 s⁻¹.

G9C A12C C58U was tested, and the “self-cleavage kobs at 640 uM GlcN6P” value [1] was < 1e-05 s⁻¹ and the “self-cleavage kobs at 2500 uM GlcN6P” value [2] was < 1e-05 s⁻¹.

With C8G A12C C71A the “self-cleavage kobs at 640 uM GlcN6P” value [1] was < 1e-05 s⁻¹ and the “self-cleavage kobs at 2500 uM GlcN6P” value [2] was < 1e-05 s⁻¹.

For C8A G40A C68U, the “self-cleavage kobs at 640 uM GlcN6P” value [1] was < 1e-05 s⁻¹ and the “self-cleavage kobs at 10000 uM GlcN6P” value [3] was < 1e-05 s⁻¹.

For C10G A15C C50A, the “self-cleavage kobs at 640 uM GlcN6P” value [1] was < 1e-05 s⁻¹.

In the case of C8G A33C U45C U56C G59C, the “self-cleavage kobs at 640 uM GlcN6P” value [1] is reported as < 1e-05 s⁻¹ and the “self-cleavage kobs at 2500 uM GlcN6P” value [2] is reported as < 1e-05 s⁻¹.

For G32U C34G G41C A53U A64C U65G, the “self-cleavage kobs at 640 uM GlcN6P” value [1] was < 1e-05 s⁻¹ and the “self-cleavage kobs at 2500 uM GlcN6P” value [2] was < 1e-05 s⁻¹.

With A6U C16U U47A the “self-cleavage kobs at 640 uM GlcN6P” value [1] was 6.84e-05 ± 2.1e-05 s⁻¹ and the “self-cleavage kobs at 2500 uM GlcN6P” value [2] was 0.000103 ± 3.5e-05 s⁻¹.

In the case of C10U G37C A39G G41C A48U G62U U65A, the “self-cleavage kobs at 640 uM GlcN6P” value [1] is reported as < 1e-05 s⁻¹ and the “self-cleavage kobs at 2500 uM GlcN6P” value [2] is reported as < 1e-05 s⁻¹.

G13U G32A U46A was tested, and the “self-cleavage kobs at 640 uM GlcN6P” value [1] was 4.17e-05 ± 1.9e-05 s⁻¹ and the “self-cleavage kobs at 2500 uM GlcN6P” value [2] was 8.03e-05 ± 2.3e-05 s⁻¹.

With C11A G35U C71G the “self-cleavage kobs at 640 uM GlcN6P” value [1] was < 1e-05 s⁻¹ and the “self-cleavage kobs at 2500 uM GlcN6P” value [2] was < 1e-05 s⁻¹.

With C10A A12U G29A A39G A52G C67G the “self-cleavage kobs at 640 uM GlcN6P” value [1] was 0.000283 ± 8.4e-05 s⁻¹ and the “self-cleavage kobs at 2500 uM GlcN6P” value [2] was 0.000236 ± 7.4e-05 s⁻¹.

Reference: the supplement of paper PMC7125110
